Measurements: US20040259172A1
Numbered stars: 1 amine (or outer) side, 2 acyl side, 3 side chain; on linkers, the order of the positions; unused ones are H or OH. Square brackets hold non-standard residues; d marks the D form. Ends that are not written are not given here. βAsp = O=C(O)[C@H](CC(=O)[*:2])N[*:1]

Biological target: mouse-anti-β-COMP sera (polyclonal antiserum specific for the human COMP derived sequence AQEDβSDH)
Test: competitive ELISA: free peptide competes with biotinylated β-COMP on streptavidin plates for the mouse anti-β-COMP serum

Row | Binder | IC50
1 | AQE[βAsp]SDH | 0.038 µg/mL
2 | AQEDSDH [α-COMP peptide (non-isomerised (α) form of the COMP peptide)] | 0.435 µg/mL
